Experimental data as given in US20260055206A1 (GENSUN BIOPHARMA, published 2026).
Numbering of substitutions follows the chain as printed.

T1: human DLL3 (over-expressed on CHO-K1 cells) (human, UniProt Q9NYJ7 27-618)
T1 construct: whole, on cells; also called huDLL3; Delta-like 3
T1 sequence (looked up): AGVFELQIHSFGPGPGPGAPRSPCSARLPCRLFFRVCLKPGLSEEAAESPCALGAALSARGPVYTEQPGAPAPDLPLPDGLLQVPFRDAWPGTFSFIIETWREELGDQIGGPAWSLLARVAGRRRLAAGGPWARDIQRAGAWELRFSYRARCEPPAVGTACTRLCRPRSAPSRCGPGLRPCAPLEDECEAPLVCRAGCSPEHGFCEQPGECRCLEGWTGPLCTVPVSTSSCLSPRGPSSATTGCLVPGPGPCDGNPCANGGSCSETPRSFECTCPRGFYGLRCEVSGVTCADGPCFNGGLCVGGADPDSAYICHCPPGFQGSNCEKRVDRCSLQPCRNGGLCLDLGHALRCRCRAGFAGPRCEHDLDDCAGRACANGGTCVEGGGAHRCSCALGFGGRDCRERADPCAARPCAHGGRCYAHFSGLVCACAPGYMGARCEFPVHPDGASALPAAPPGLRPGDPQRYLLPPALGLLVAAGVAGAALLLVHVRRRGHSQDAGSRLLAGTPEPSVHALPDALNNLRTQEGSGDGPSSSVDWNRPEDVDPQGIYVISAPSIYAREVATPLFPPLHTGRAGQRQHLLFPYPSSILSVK

B1: DLL3.1 (humanized anti-DLL3 antibody) (antibody, V domains shown)
VH: QVQLVQSGAEVKKPGASVKVSCKASDYTFSNYYIEWVRQAPGQGLEWMGEILPGNGNTVYNEKFKDRVTMTVDTSTSTAYMELRSLRSDDTAVYYCARWGDYALFANWGQGTLVTVSS
VL: DIQMTQSPSTLSASVGDRVTITCKASQNVGTNVAWYQQKPGKAPKALIYSASYRYSGVPSRFSGSGSGTEFTLTISSLQPDDFATYYCQQYNSYPFTFGQGTKLEIK
notes: it was detected with anti-human IgG Fc
B2: DLL3.4 (humanized anti-DLL3 antibody) (antibody, V domains shown)
VH: B1 VH with S25T, T28I, N55T, A79V, R84S, D89E
VL: B1 VL with T10F, A46P, A51T, D81E, S93N, F96L, Q100G, L104V
notes: as for B1
B3: DLL3.3 (humanized anti-DLL3 antibody) (antibody, V domains shown)
VH: QVQLVQSGAEVKKPGASVKVSCKASGYTFTDYFMNWVRQAPGQGLEWMGVINPYNDITIYNQKFQGRVTMTVDRSTSTVYMELSSLRSEDTAVYYCAREGVLYDGYYEGAYWGQGTLVTVSS
VL: DIQLTQSPSFLSASVGDRVTITCKASQNVGIAVAWYQQKPGKAPKLLIYAASNRYTGVPSRFSGSGSGTEFTLTISSLQPEDFATYYCQQYSTYPYTFGQGTKLEIK
notes: as for B1

Molecular target: T1, human DLL3 (over-expressed on CHO-K1 …)
Assay: flow cytometry (iQue) on CHO-K1 cells over-expressing human DLL3, PE anti-human IgG Fc secondary
Protocol: To evaluate the ability of anti-DLL3 antibodies to bind, human serial dilutions of the anti-DLL3 antibodies were added to CHO-K1 cells (20,000 cells/well) over-expressing human or cyno DLL3. The mixtures were incubated at 4° C. for 20 minutes, washed 3 times, and stained with the secondary antibody, PE labeled F(ab′)2-Goat anti-human IgG Fc (Thermo H10104) at 4° C. for 20 minutes. Cells were washed and resuspended in 7-Amino-Actinomycin D (7-AAD) solution and fixed in 10% neutral buffered formalin solution for 15 minutes before analysis with the iQue-Intellicyt […]™ iQUE™ system. FIG. 3A is a graph of the concentration (nM) versus the mean fluorescence intensity.

Binding result, binds:
B1
B2
B3
